The source of these data is patent US11697680B2, “Anti-GP73 antibodies and immunoconjugates” (CUREAB GMBH, priority 2016, dated 2023).

One assay concerns HuH7 cells. In words: Efficacy of G2-2-ADC in HuH7 cells (cell viability, PrestoBlue). As to conditions: medium changed after one hour, viability after 98 hours, read-out: IC50 as determined by drug component. The class given is cell-based, human. Here is the method:
FIG. 14 An antibody drug conjugate consisting of MMAF attached to a Malamide exchange linker linked to G2-2 was added to HuH7 cells.
An antibody drug conjugate consisting of MMAF attached by a malameide exchange linker to G2-2 was added to the cell culture medium of HUH7 cells in different concentrations. Medium was changed after one hour. Cell viability was analyzed after 98 hours using PrestoBlue reagent (ThermoFischer).

The target of the next assay is T1, sGP73 (GP73 AA56 to 401) (Homo sapiens, UniProt Q8NBJ4).
T1 construct: contains sGP73-10×His, encompassing GP73 AA56 to 401 (sGP73); made in house; host or cells: 293HEK cells, isolated from the supernatant by IMAC
T1 sequence (Q8NBJ4 with tags, fused parts or gaps): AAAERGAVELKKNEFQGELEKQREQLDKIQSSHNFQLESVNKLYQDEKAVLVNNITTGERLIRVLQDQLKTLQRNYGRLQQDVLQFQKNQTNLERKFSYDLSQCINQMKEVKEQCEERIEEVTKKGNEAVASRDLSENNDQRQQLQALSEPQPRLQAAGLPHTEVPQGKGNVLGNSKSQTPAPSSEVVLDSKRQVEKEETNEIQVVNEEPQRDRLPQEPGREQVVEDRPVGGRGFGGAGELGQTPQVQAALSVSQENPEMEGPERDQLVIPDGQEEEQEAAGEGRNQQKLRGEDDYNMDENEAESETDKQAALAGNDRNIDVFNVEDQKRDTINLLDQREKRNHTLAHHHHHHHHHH
In words: Protein ELISA on sGP73-His. Particulars: plates coated with sGP73; absorbance 450 nm. The class given is binding. Here is the method: (§1) 293HEK cells were either transfected with cDNA containing full length GP73 AA 1-401 C-terminal tagged with 10×HIS-Tag or with a GP73 ΔN variant containing AA 36 to 401 with a R52A mutation, resulting in a non-cleavable variant, C-terminal tagged with 10×HIS-Tag (GP73-His AVRR). In both constructs a secretion signal was added in frame to the N-terminus. The supernatant of the full length GP73 expressing cells contains sGP73-10×His, encompassing GP73 AA56 to 401 (sGP73; SEQ ID NO: 40), that has been proteolytically cleaved by furin or another protease at AA 55. The supernatant of the GP73 ΔN variant contains GP73-10×His AVRR, encompassing GP73 AA36 to 401 (GP73 AVRR; SEQ ID NO: 41) as shown in FIG. 20. Only the latter of the two constructs contains the rGP73 epitope. Both proteins were isolated by IMAC.
(§2) ELISA was carried out in 96 well plates coated overnight with sGP73 or GP73 AVRR and blocked with 2% gelatine. Antibodies 8A10, G2-2opti (IgG2a) or isotype control antibody were applied, incubated for 1.5 hours and washed away. A secondary Horse radish peroxidase labeled anti mouse antibody was added for 1 hour and after extensive washing a chromogenic substrate (TMB Amersham) was applied to detect peroxidase.
In general terms: ELISA stands for enzyme-linked immunosorbent assay.

Assay [1] deals with T2, GP73 AVRR (GP73 AA36 to 401, R52A) (Homo sapiens, UniProt Q8NBJ4, R52A).
T2 construct: contains GP73-10×His AVRR, encompassing GP73 AA36 to 401 (GP73 AVRR); made in house; host or cells: 293HEK cells, isolated from the supernatant by IMAC
T2 sequence (Q8NBJ4 with tags, fused parts or gaps R52A): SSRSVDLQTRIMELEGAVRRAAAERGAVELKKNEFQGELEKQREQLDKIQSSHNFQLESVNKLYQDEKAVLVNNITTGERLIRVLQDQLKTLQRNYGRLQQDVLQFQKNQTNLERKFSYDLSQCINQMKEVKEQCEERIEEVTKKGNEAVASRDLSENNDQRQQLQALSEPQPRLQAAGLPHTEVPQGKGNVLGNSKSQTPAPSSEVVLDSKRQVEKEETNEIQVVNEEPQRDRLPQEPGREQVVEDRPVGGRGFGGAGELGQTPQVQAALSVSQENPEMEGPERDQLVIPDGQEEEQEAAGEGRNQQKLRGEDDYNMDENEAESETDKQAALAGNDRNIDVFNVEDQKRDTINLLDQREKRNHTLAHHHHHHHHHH
Nature of the assay: Protein ELISA on GP73-His AVRR. As to conditions: plates coated with GP73 AVRR; absorbance 450 nm. The class given is binding. As for the experimental part:
as §1, §2

Assay [2] addresses T3, Furin cleavage of recombinant GP73-HIS (Homo sapiens, UniProt Q8NBJ4).
T3 construct: purchased Biolegend
T3 sequence (Q8NBJ4 36-401 limits assumed): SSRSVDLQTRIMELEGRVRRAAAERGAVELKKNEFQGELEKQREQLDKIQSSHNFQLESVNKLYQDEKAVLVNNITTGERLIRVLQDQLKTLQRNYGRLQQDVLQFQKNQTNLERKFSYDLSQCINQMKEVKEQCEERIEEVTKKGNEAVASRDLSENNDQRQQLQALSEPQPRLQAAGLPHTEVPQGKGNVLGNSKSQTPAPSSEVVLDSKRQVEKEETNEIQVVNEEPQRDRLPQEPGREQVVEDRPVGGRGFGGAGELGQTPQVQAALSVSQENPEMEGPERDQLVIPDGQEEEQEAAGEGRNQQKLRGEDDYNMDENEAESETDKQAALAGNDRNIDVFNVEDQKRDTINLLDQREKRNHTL
In words: Furin cleavage of GP73-HIS depending on antibody binding (capture ELISA). The class given is biochemical. As to conditions: 3 U and 1.5 U of Furin; 2 hours at 30° C. The text has this:
Measurements of Furin cleavage of GP73 using a range from 0 units to 3 units of Furin are depicted.
Testing of Furin cleavage exploits the fact that antibodies G2-1 and G2-2 bind GP73 N-terminal of or at the furin cleavage site 56R whereas recombinant GP73 with C-terminal HIS tag (GP73-HIS) is detected by anti HIS antibody at the C-terminus of GP73. Plate bound anti human IgG can capture G2-1 or G2-2, which binds GP73-HIS. If furin cleavage occurs in a setting where G2-1 or G2-2 have already bound to GP73-HIS, only N-terminal part of GP73 will reside at the G2 antibodies. In contrast, if furin cleavage is hindered by G2 antibodies, GP73-HIS can be detected by an anti HIS antibody.
Furin cleavage was carried out in 1.5 ml tubes. To test if G2 antibodies can hinder furin cleavage recombinant GOLPH-HIS protein (Biolegend) and G2-2 or G2-1 was incubated for 2 hours in 100 mM HEPES and 1 mM CaCl2 buffer pH 7.5 to allow antibody binding to GP73. […]
From each reaction 2×100 ul were transferred to wells of a 96 well plate that had been coated over night with anti human IgG and was blocked with 1% gelatine in PBS. After one hour incubation at room temperature the plate was washed, incubated with anti HIS-hrp antibody for one hour, washed again, incubated with a chromogenic substrate (TMB Amersham) to detect peroxidase, stopped and read at 450 nm.

Assay [3] has as its target T4, peptide AA 36-55 of GP73 (Homo sapiens, UniProt Q8NBJ4). Nature of the assay: pH dependent peptide ELISA. The class given is binding. As to conditions: pH range of 7.4 to 5.4. As for the experimental part: A peptide ELISA was performed to test for pH dependency of binding to peptide AA 36-55 of GP73.
(§3) ELISA was carried out in 96 well plates coated overnight with biotinylated peptide and blocked with 2% gelatine. Horse radish peroxidase labeled antibodies G2-1 (G2-1-HRP) or G2-2 (G2-2-HRP) were applied and incubated for 1.5 hours. For competition testing non labeled G2-1 or G2-2 was added at high concentration. For pH dependent binding the antibodies were applied in phosphate buffer pH 4.4, 5.4, 6.4 or 7.4. After extensive washing a chromogenic substrate (TMB Amersham) was added to detect peroxidase. The reaction was stopped and absorbance was read at 450 nm.

Assay [4] concerns the target T4, peptide AA 36-55 of GP73. In words: Competition peptide ELISA with HRP-labeled antibodies. As to conditions: unlabeled competing antibody at high concentration; binding antibody G2-2-HRP. The class given is binding. Here is the method: A peptide ELISA was performed using horse radish peroxidase labeled G2-1 (G2-1-HRP) or G2-2 (G2-2-HRP) as binding antibodies and G2-1 or G2-2 as competing antibodies. […] Binding to peptide AA 36-55 of GP73 served as positive control (filled circle), negative control was binding to an unrelated peptide (filled diamond) as described in Example 5.
as §3

The target of a further assay is T5, GP73 peptide: […] (Homo sapiens, UniProt Q8NBJ4).
T5 construct: GP73 peptide: […]
Nature of the assay: Biacore surface plasmon resonance, data fit for 1:1 binding. As to conditions: Biacore 1:1 binding fit; GP73 peptide SSRSVDLQTRIMELEGRVRR
As for the experimental part: In one embodiment, Kd is measured using surface plasmon resonance assays using a BIACORE®-2000 or a BIACORE®-3000 (BIAcore, Inc., Piscataway, N.J.) at 25° C. with immobilized antigen CM5 chips at […] response units (RU). Briefly, carboxymethylated dextran biosensor chips (CM5, BIACORE, Inc.) are activated with N-ethyl-N′-(3-dimethylaminopropyl) carbodiimide hydrochloride (EDC) and N-hydroxysuccinimide (NHS) according to the supplier's instructions. Antigen is diluted with 10 mM sodium acetate, pH 4.8, to 5 μg/ml (−0.2 μM) before injection at a flow rate of 5 μl/minute to achieve approximately 10 response units (RU) of coupled protein. Following the injection of antigen, 1 M ethanolamine is injected to block unreacted groups. For kinetics measurements, two-fold serial dilutions of antibody (0.58 nM to 200 nM) are injected in PBS with 0.05% polysorbate 20 (TWEEN-20™) surfactant (PEST) at 25° C. at a flow rate of approximately 25 μl/min. Association rates (kon) and dissociation rates (koff) are calculated using a simple one-to-one Langmuir binding model (BIACORE® T100 Evaluation Software) by simultaneously fitting the association and dissociation sensorgrams. The equilibrium dissociation constant (Kd) is calculated as the ratio koff/kon. See, e.g., Chen et al., J. Mol. Biol. 293:865-881 (1999). If the on-rate exceeds […] s^−1 by the surface plasmon resonance assay above, then the on-rate can be determined by using a fluorescent quenching technique that measures the increase or decrease in fluorescence emission intensity (excitation=295 nm; emission=340 nm, 16 nm band-pass) at 25° C. of a 20 nM anti-antigen antibody in PBS, pH 7.2, in the presence of increasing concentrations of antigen as measured in a spectrometer, such as a stop-flow equipped spectrophometer (Aviv Instruments) or a 8000-series SLM-AMINCO™ spectrophotometer (ThermoSpectronic) with a stirred cuvette.
(In general: Surface plasmon resonance follows binding to a sensor surface in real time, without labels.)

Where a SMILES comes first, the peptide text is derived from it. [ ]: non-standard residue; d: D form. Dolaproine = CO[C@@H]([C@@H]1CCCN1)[C@@H](C)C(=O)O; Dil = CC[C@H](C)[C@H](NC)[C@@H](CC(=O)O)OC; NMeV = CN[C@H](C(=O)O)C(C)C

For orientation: IC50 means the midpoint of a concentration-inhibition curve.

In the case of `CC[C@H](C)[C@@H]([C@@H](CC(=O)N1CCC[C@H]1[C@H](OC)[C@@H](C)C(=O)N[C@@H](Cc1ccccc1)C(=O)O)OC)N(C)C(=O)[C@@H](NC(=O)[C@@H](NC)C(C)C)C(C)C` [MMAF, monomethylauristatin F] (H-[NMeV]V[Dil][Dolaproine]F-OH), in the assay with HuH7 cells, the IC50 was found to be 277 nM.

B1: G2-2opti (IgG2a): chimeric human/murine version of G2-2opti with murine constant domains (antibody, V domains shown)
VH: QVQLVQSGGGVVQPGRSLRLSCAASGFTFSSYGMHWVRQAPGKGLEWVAVISYDGSNKYYADSVKGRFTISRDNSKNTLYLQMNSLRAEDTAVYYCAREGSAGMDVWGQGTTVTVSS
VL: QAVLTQPSSLSASPGASASLTCTLRSDISVGFHRIYWYQQKPGSPPQYLLRYKSDSDKQQGSGVPSRFSGSKDASANAGILLISGLQSDDEADYYCVIWHTSGVVFGGGTKLTVL
Regarding B1, in the assay with sGP73 (GP73 AA56 to 401), the “binding to sGP73 (ELISA)” value is listed as “not to sGP73”. In addition, in assay [1], the “binding to GP73 AVRR (ELISA)” value is on record as “binds to GP73 AVRR”.

B2: G2-1: scFv clone with human IgG1 heavy and human Igk light constant regions; VH/VL SEQ ID NO: 10 and 11; binds rGP73 (antibody, V domains shown)
VH: EVQLLESGGGVVQPGRSLRLSCAASGFTFSSYAMSWVRQAPGKGLEWVSVISYDGSNKAYADSVKGRFTISRDNSKNTLYLQMNSLRAEDTAVYYCARGRSYYDSSGYLFDYWGQGTLVTVSS
VL: DIQMTQPHSVSESVGKTVIITCTGGGGSIDTNYVQWYQQRPGSAPVTLIYEDDQRPFGVPDRFSAAIDTSSSSASLTISGLTAEDEATYYCQSSHSTAVVFGGGTKVEIK
modifications: human IgG1 and Igk constant regions not cited; G2-1 heavy chain variable region (VH); G2-1 light chain variable region (VL)
As to B2, in assay [2], the “Furin cleavage of GP73 after preincubation with antibody” value is listed as “significant reduction in Furin cleavage”. The “pH dependency of binding to peptide AA 36-55 of GP73” value with peptide AA 36-55 of GP73 [3] was “Stable binding”. Also, the “competition with G2-2-HRP for peptide binding” value in the assay with peptide AA 36-55 of GP73 [4] is recorded as “Competitive inhibition”. Besides, in the assay with GP73 peptide: […], the “koff, measurement 1 + 2 mean” value was 0.001981 s⁻¹ and the “kon, measurement 1 + 2 mean” value is 635200 M⁻¹ s⁻¹.
